Experimental data reported in patent US12673132B2, “Extrusion printing of biocompatible scaffolds” (William Marsh Rice University, priority 2020, dated 2026).
No end group written: not given here.

Assays:
[1] = microCT physical characterization of 3D printed PCL constructs; format: physicochemical; details: melt-extruded 4-layer crosshatch scaffold
Protocol: The 3D printed PCL constructs were fabricated by melt extrusion with an EnvisionTEC 3D Bioplotter Manufacturer (Gladbeck, Germany). The polymer of interest was placed in a metal cartridge, heated to 85-95° C., and extruded through a 27G needle at 4.9-5.1 bar pressure, 4.0 mm/s deposition speed, and 0.4 s pre-flow and post-flow, with imaging after each layer. Constructs were printed as a cylindrical, alternating crosshatch pattern with 4 layers of 5 mm diameter and 220 μm thickness, producing scaffolds with total dimensions of 5 mm diameter and 0.88 mm height. The porosity, average fiber diameter, and average pore diameter of each construct was assessed by microcomputed tomography (μCT) using a Bruker SkyScan 1272 (Billerica, MA). Scans were acquired at a voltage of 40 kV and a current of 250 μA, with a rotation step size of 0.4°, 8 μm/pixel, frame averaging of 6, and random movement of 10. Reconstruction, slicing, and analysis were performed in Bruker NRecon and CTAn software (Billerica, MA) and LabView (Austin, TX). For quantification of physical architectural properties, a proportional volume of interest was set at 75% scale of the x, v, and z axes, equally spaced from the scaffold edges.

[2] = test system: Rat bone marrow derived MSCs; experiment: PicoGreen assay (DNA content) of MSC-seeded printed scaffolds; format: cell-based; details: osteogenic and osteochondral media, up to 28 days, FIG. 5A
Excerpt: (§1) Rat bone marrow derived MSCs (mesenchymal stem cells) were harvested by aspiration of bone marrow from the tibia of five 6-8 week old male Fischer 344 rats from Charles River Laboratories (Wilmington, MA), in accordance with protocols approved by the Rice Institutional Animal Care and Use Committee and in agreement with the animal care and use guidelines set forth by the National Institutes of Health. Cells from all rats were pooled to minimize inter-animal variability. Adherent cells were cultured in growth medium (DMEM with 10% v/v FBS and 1% v/v antibiotic-antimycotic) inside a humidified incubator at 37° C. and 5% CO2, and cryopreserved in liquid N2 until point of usage. All MSCs were used at Passage 3. Printed constructs were sterilized by exposure of both sides to UV light for 3 h, immersion in a sterile gradient (100%, 75%, 50%, 25%, 0%) of ethanol and PBS, and two additional washes in PBS. […] After weighing, each scaffold was frozen at −20° C. until ready for characterization. […] After homogenization, the proteinase K and acetic acid suspensions were allowed to digest for 16 h at 65° C. and room temperature, respectively, followed by quantification of biochemical content using assay kits. […] The bioactivity of PCL-peptide composites was determined by seeding MSCs on 3D printed constructs and investigating their ability to promote bone- and cartilage-specific ECM deposition in vitro. […]

[3] = test system: Rat bone marrow derived MSCs; experiment: DMMB assay (cartilage-specific sulfated glycosaminoglycans) of MSC-seeded printed scaffolds; format: cell-based
Excerpt: as §1, with “PBS. MSCs were seeded on the scaffolds by pipetting 30 μL of a 3.3×10^6 cells/mL suspension on top of each scaffold in a low-attachment 24-well plate. After 2 h, 970 μL of growth medium was gently added to each well. After 24 h of cell attachment, the growth medium was replaced with either chondrogenic, osteogenic, or osteochondral medium. Parallel chondrogenic (PCL-alkyne, PCL-NC) and osteogenic (PCL-alkyne, PCL-GHK) studies were conducted, in which scaffolds were cultured in both tissue-specific medium as well as mixed osteochondral medium.” for “PBS.”

[4] = test system: Rat bone marrow derived MSCs; experiment: Arsenazo III assay (bone-specific mineralization) of MSC-seeded printed scaffolds; format: cell-based; details: mixed osteochondral medium
Excerpt: as §1

Row | Substance | Average Fiber Diameter [1] | Average Pore Diameter [1] | Porosity [1] | DNA content normalized to scaffold mass (cell proliferation) [2] | sGAG content normalized to cellular content (sGAG deposition per cell) ([3]; chondrogenic medium, up to day 28, FIG. 5D) | sGAG content normalized to cellular content (sGAG deposition per cell) ([3]; mixed osteochondral medium, over time, FIG. 5D) | sGAG content normalized to scaffold mass ([3]; serum-free chondrogenic medium, FIG. 5E) | Bone-specific calcium content normalized to cellular content (mineralization per cell) ([4]; FIG. 5B) | Bone-specific calcium content normalized to scaffold mass (scaffold mineralization) ([4]; FIG. 5C)
1 | PCL-BMPm: PCL-alkyne click-conjugated to azide-terminated bone morphogenetic protein mimetic peptide (SEQ ID NO: 1, GGGRHVRISRSL) (GGGRHVRISRSL-NH2; not fully specified (N-terminus); also: N-terminal azide click-conjugated to PCL-alkyne) | 262 ± 48 μm | 419 ± 37 μm | 70.7 ± 4.2% |  |  |  |  |  | 
2 | PCL-NC: PCL-alkyne click-conjugated to azide-terminated N-cadherin peptide (SEQ ID NO: 3, GGGHAVDI) (GGGHAVDI-NH2; not fully specified (N-terminus); also: N-terminal azide click-conjugated to PCL-alkyne) | 200 ± 9 μm | 432 ± 31 μm | 71.8 ± 3.7% | statistically lower proliferation | large spike in cartilage-specific sGAG deposition per cell by day 28 | maintained a constant level of sGAG deposition per cell | statistically significant increase in mass-normalized sGAG content | greater mineralization per cell | did not produce statistically significant effects on scaffold mineralization
